Measurements from publication PMC3085397 (Immunity, 2011).

Biological target: the molecule itself
Experiment: SEC-MALS

| Protein | binding result | stoichiometry N |
| --- | --- | --- |
| FOXP3 forkhead domain F373A (IPEX mutation) (domain or fragment, human) MRPPFTYATLIRWAILEAPEKQRTLNEIYHWFTRMFAAFRNHPATWKNAIRHNLSLHKCFVRVESEKGAVWTVDELEFRKKR | binds |  |
| FOXP3 forkhead domain F371C (IPEX mutation) (domain or fragment, human) MRPPFTYATLIRWAILEAPEKQRTLNEIYHWFTRMCAFFRNHPATWKNAIRHNLSLHKCFVRVESEKGAVWTVDELEFRKKR |  | 2 |
| FOXP3 forkhead domain double mutant (W348Q and M370T) (domain or fragment, human) MRPPFTYATLIRQAILEAPEKQRTLNEIYHWFTRTFAFFRNHPATWKNAIRHNLSLHKCFVRVESEKGAVWTVDELEFRKKR | binds |  |
